Source: patent publication US20250320288A1, “METHOD OF TREATING VITILIGO WITH INTERFERON-GAMMA ANTIBODY” (Elixiron Immunotherapeutics (Hong Kong), priority 2022, published 2025)
Entries after “also recorded” stand apart in the source; their conditions may differ.

Experiments:
[1] = 4-week repeated intravenous infusion GLP toxicology of EI-001; assay type: in vivo
Protocol: Materials and methods: A total of forty Cynomolgus monkeys (20 females and 20 males) were assigned into 4 groups with 5 animals/gender/group and given EI-001 (2A6Q) (10, 30 and 100 mg/kg) or vehicle (Formulation Buffer) in a volume of 10 mL/kg via 30-min intravenous infusion, once weekly for a total of 5 doses, followed by a 6-week recovery phase. All animals were scheduled to be necropsied at the end of main phase (on Day 30) and at the end of recovery phase (on Day 72). During the study, the following parameters were evaluated: clinical observations, ophthalmology, body weight, food consumption, body temperature (rectal temperature), clinical pathology (hematology, coagulation, plasma chemistry, lymphocyte immunophenotype and urinalysis), gross pathology, organ weight and histopathology. toxicokinetics, immunogenicity, local irritation assessment, cardiovascular (ECG, body surface temperature, blood pressure), respiratory and central nervous system safety pharmacology assessments were conducted concurrently. […] The immunogenicity samples were collected on pre-dose on Days 1, 15, 22, and Days 57, 71.

melanocytes [2] = test: Melanocyte apoptosis, Annexin V / 7AAD flow cytometry; assay type: cell-based, human; settings: 2A6Q 10 μg/mL
Protocol: Materials and methods: Melanocyte cell apoptosis was detected with Annexin V (BD, 550474) and 7AAD (1 mg/mL, Sigma A9400-1 MG). The cells were detached and resuspended with […] binding buffer (BD, 556454) containing Annexin V and 7AAD for 15 min at room temperature in the dark. Before analysis, cells were added to a […] binding buffer and immediately analyzed a on a flow cytometer (Verse BD).

[3] = tested on: CXCR3 expression on CD8+ T cells; test: CXCR3 expression on CD8+ T cells of activated PBMCs (flow cytometry); assay type: cell-based, human; settings: 3 individual donors
Protocol: Materials and methods: PBMCs from healthy adult donors were isolated from whole blood using Ficoll-Paque density gradient centrifugation. PBMCs were cultured in a humidified 37° C. incubator for 24 hours in RPMI-1640 culture medium supplemented with 5% human serum, and standard antibiotics, 2-ME and HEPES. PBMCs were then seeded at 1×10^6 cells/well with 1 mL fresh culture medium/well in a 24-well plate and stimulated by mixing cells with human T cell TransAct (1:200). Antibodies indicated in the Results were then added and mixed well. After 2 days of culture, PBMCs were collected, washed with PBS three times, re-suspended in culture medium and re-cultured with indicated antibodies for an additional 2 days.
PBMCs were treated as required (see above) and then harvested for flow cytometry antibody staining, using anti-human CD4, anti-human CD8, anti-human CD56 and anti-human CXCR3 antibodies for 30 minutes on ice in the dark. PBMCs were then washed twice with FACS buffer and the expression of CXCR3 determined by flow cytometry using an Attune NxT flow cytometry. Flow cytometry data analysis was performed using FlowJo software.

melanocytes [4] = test: Intracellular ROS in melanocytes (CM-H2DCFDA); assay type: cell-based, human; settings: melanocytes
Protocol: Materials and methods: For intracellular ROS measurement, melanocytes were washed with PBS and incubated with 20 μM CM-H2DCFDA (Invitrogen) for 30 min at 37° C. in the dark. The cells were resuspended with PBS and examined with flow cytometry at an excitation wavelength of 488 nm and an emission wavelength of 530 nm; the data were analyzed with FlowJo.

MITF = test: Melanin regulators in melanocytes (RNA sequencing, MITF immunoblot); assay type: cell-based, human; settings: melanocytes
From the text: Total RNA was extracted from melanocytes with an RNA purification kit (Zymo Research, r2050). After RNA samples were extracted from primary melanocytes and melanocytes cell line (Gibco), the samples were sent to Biotools Co., Ltd Taiwan for RNA sequence. The RNA quality was examined by Agilent Technologies 2100 Bio-analyzer with an RNA integrity value greater than 8. After rRNA depletion (Epicenter), RNA fragmentation, and library preparation (Illumina), the constructed libraries were then performed 150 bp paired-end sequencing by an Illumina NovaSeq6000 sequencer. The results from each sample were aligned to the GRCh38 genome by the HISAT2 software and analyzed by Biotools Co., Ltd Taiwan.
Cells were washed in PBS and lysed in RIPA lysis buffer with proteases inhibitor and Phenylmethanesulfonyl fluoride (PMSF; Sigma-Aldrich, P7626). The total cell lysates were sonicated and centrifuged at 4° C., 13000 rpm for 30 min. Protein concentration was quantified using the Bradford assay. The total cell lysates were separated by SDS-PAGE and transferred to a PVDF membrane. The membrane was blocked with 5% BSA or 5% milk in TBST for 1 hour at room temperature and incubated with primary antibodies overnight at 4° C. and HRP-conjugated secondary antibodies for hour at room temperature. The protein was visualized by Thermo ibright1500. Primary antibodies were follows: anti-human SLC7A11 (CST, 12691), anti-human SLC3A2 (CST, 13180), anti-IRF1 (CST, 8478), anti-MITF (CST, 12590), and anti-GAPDH (Abcam, ab8245).

B1: EI-001: human monoclonal anti-IFN-γ neutralizing antibody; VH SEQ ID NO: 165, VL SEQ ID NO: 113; N76Q removes VH glycosylation site (antibody, listed as Homo sapiens, V domains shown)
VH: EVQLVESGGGLVKPGDSLTVSCVASGFTFSNYFIHWVRQAPGKGLEWVATISGRTKYMFYSDSLRGRFTVSRDNAQNSVYLHMSSLRGEDTALYYCVRGYDHSDSNSAADLLHWGRGTLVTVSS
VL: NFMLTQPLSVSGYPGKTIVISCVRSSGSVASHYVQWFQQRPGSAPAMVIYEDSHRPSGIPDRFSGSVDASSNSASLTISGLKTEDEADYFCQSYYGNNQVLFGGGTKLTVL
modifications: Recombinant variant antibody sequence
notes: human monoclonal anti-IFN-γ neutralizing antibody; N76Q removes VH glycosylation site
- survival of treated animals ([1]; 10, 30 and 100 mg/kg once weekly): survived to their scheduled necropsy
- tolerability after repeated intravenous infusion for 4 weeks ([1]; 10, 30 and 100 mg/kg once weekly, 5 doses): well-tolerated
- mortality rates or susceptibility to infections among the treated monkeys ([1]; compared to prior NI-0501 toxicology studies): did not increase
- drug adverse events in in vivo toxicology ([1]; cynomolgus monkey, in vivo): does not cause any significant drug adverse events
- observable symptoms of infection ([1]; cynomolgus monkey, in vivo): did not induce
- only detected changes related to administration ([1]; cynomolgus monkey, in vivo): seen on a microscopic level
- reversal of IFN-γ induced early phase apoptosis (melanocytes [2]): managed to reverse the apoptosis; also recorded: reverses
- IC50 of EI-001 to inhibit CXCR3 expression on CD8+ T cells [3]: 1.029 to 6.941 mg/L
- reversal of IFN-γ induced ROS / cellular oxidative stress (melanocytes [4]): reverses the ROS
- reversal of IFN-γ induced downregulation of MITF (MITF): reverses
